Measurements reported in patent US20260098092A1 (CHULALONGKORN UNIVERSITY, published 2026).
Substitutions are numbered along the chain they refer to. Names and notes keep the numbering of the source. Like-named read-outs stand apart in the source and are kept apart here.

B1: xCUSB0125 (antibody, human IgG4, V domains shown)
VH: DVQLRESGPGLVKPSQSLSLTCTVTGYSITSDYAWNWIRQFPGNKLEWMGYIYYSGTTSYNPSLKSRISITRDTSKNQFFLQLNSVTTEDTATYYCARNYGSAFYYFDYWGQGTTLTVSS
VL: DILMTQSPSSMSVSLGDTVTITCHASQGISSNIGWLQQKPGKSFKGLIYRGTNLEDGVPSRFSGSGSGADYSLTISSLESEDFADYYCVQYAQFPPTFGGGTKLEIK
notes: Chimeric: mouse variable regions joined to human IgG4/kappa constant regions; also called chimeric CUSB0125; not shown: human IgG4 constant region, UniProt P01861; human kappa constant region, UniProt P01834
B2: xCUSB0136 (antibody, human IgG4, V domains shown)
VH: QVQLKESGPGLVAPSQSLSITCTVSGFSLTTYDIIWIRQSPGKGLEWLGVIWTGGDTNYNSAFMSRLSISKDNSKSQIFLKMNSLQTDDTAIYYCVRDWAYWGQGTLVTVST
VL: NIVLTQSPASLAVSLGQRATISCRASESVDNYGNSFIQWYQQKPGQPPKLLIYFASNLQSGVPARFSGSGSRTDFTLTIDPVEADDAATYYCHQNNEDPFTFGSGTKLEIK
notes: Chimeric: mouse variable regions joined to human IgG4/kappa constant regions; also called chimeric CUSB0136; xCUSBO136; not shown: human IgG4 constant region, UniProt P01861; human kappa constant region, UniProt P01834
B3: zCUSB0125.9 (antibody, human IgG4, V domains shown)
VH: QVQLQESGPGLVKPSQTLSLTCTVSGYSITSDYAWNWIRQPPGKGLEWMGYIYYSGTTSYNPSLKSRISITRDTSKNQFSLKLSSVTAADTAVYYCARNYGSAFYYFDYWGQGTTLTVSS
VL: DIQMTQSPSSVSASVGDRVTITCHASQGISSNIGWLQQKPGKAFKGLIYRGTNLEDGVPSRFSGSGSGTDYTLTISSLQPEDFATYYCVQYAQFPPTFGGGTKLEIK
notes: domain: human IgG4 constant region; Humanized; human IgG4 S228P and kappa constant regions; also called CUSB0125-BMVH.3 with CUSB0125-BMVL.3; not shown: human kappa constant region
B4: zCUSB0125.3 (antibody, human IgG4, V domains shown)
VH: B3 VH with M49I, I68V, S69T, T71S, R72V
VL: B3 VL
notes: domain: human IgG4 constant region; Humanized; human IgG4 S228P and kappa constant regions; also called CUSB0125-BMVH.1 with CUSB0125-BMVL.3; not shown: human kappa constant region
B5: zCUSB0125.6 (antibody, human IgG4, V domains shown)
VH: B3 VH with S69T, T71S, V93T
VL: B3 VL
notes: domain: human IgG4 constant region; Humanized; human IgG4 S228P and kappa constant regions; also called CUSB0125-BMVH.2 with CUSB0125-BMVL.3; not shown: human kappa constant region
B6: zCUSB0125.12 (antibody, human IgG4, V domains shown)
VH: B3 VH with P41F, G45K
VL: B3 VL
notes: domain: human IgG4 constant region; Humanized; human IgG4 S228P and kappa constant regions; also called CUSB0125-BMVH.4 with CUSB0125-BMVL.3; not shown: human kappa constant region
B7: xCUSB0123 (antibody, human IgG4, V domains shown)
VH: QVQLQQSGPELVRPGESVKISCKGSGYTFTDYVMHWVKQSHAKSLEWIGVITIYNDITNYNQKFKGKATMTIDKSSSTAYMELARLTSEDSAIYYCAREGYDSYWYFDVWGAGTTVTVSS
VL: DVLMTQTPLSLPVSLGDQASISCRSSQTIVHSNGNTYLEWYLQKPGQSPKLLIYKVSNRFSGVPDRFSGSGSGTDFTLKISRVEAEDLGVYYCFQGSHLPYTFGGGTKLEIK
notes: Chimeric: mouse variable regions joined to human IgG4/kappa constant regions; also called chimeric CUSB0123; not shown: human IgG4 constant region, UniProt P01861; human kappa constant region, UniProt P01834

Experiments:
[1] = biological target: T1, human PD-1 on PD-1-expressing Jurkat effector cells (human, UniProt Q15116 25-288); assay: cell-based or functional assay
[2] = biological target: T2, recombinant human PD-1 His-tag protein (R&D Systems) (human, UniProt Q15116 25-167); assay: SPR, Biacore T200, antibody captured on Protein G chip, PD-1 His-tag injected, single-cycle kinetics, 1:1 model
T2 construct: Bought reagent; Used for the ELISA (coated) and for SPR (analyte); also called PD-1 protein; human PD-1 protein; not shown: His-tag
Description: (§1) The Biacore T200 instrument, equipped with a Protein G sensor chip (GE Healthcare), was used to determine the binding kinetics between chimeric anti-PD-1 antibodies and PD-1 protein. Each purified chimeric anti-PD-1 antibody (1 μg/mL) was injected into the chip with a flow rate of 30 μL/min for 60 sec. […] The HBS-EP+buffer (GE Healthcare) was used as a buffer blank and diluent. The association constant (kₒₙ), dissociation constant (koff), and equilibrium constant (KD) values were calculated using Biacore T200 evaluation software (version 3.1) with a 1:1 Langmuir binding model curve fitting.

[3] = biological target: T1, human PD-1 on PD-1-expressing Jurkat …; assay: cell-based or functional assay; remark: listed apart in the source
[4] = biological target: T2, recombinant human PD-1 His-tag protein …; assay: ELISA, PD-1 His-tag coated on plate, anti-human IgG Fc-HRP detection
Description: ELISA technique was used to select hybridoma mini-pools producing anti-PD-1 antibodies using the following procedure. MaxiSorp ELISA plate was coated with PD-1 His-tag (R&D System) in PBS buffer (10 ng/100 μL/well) at 4° C. overnight. […] The culture supernatant of each mini-pool (100 μL) was added to the plate then incubated for 1 hour at 37° C. After washing, the plate was probed with goat anti-mouse IgG Fcγ-HRP (Jackson Immuno Research) diluted 1:8,000 in PBST (100 μL/well) and incubated for 1 hour at 37° C. […] 1 M H₂SO₄ (50 μL/well) was used to stop the reaction. […] Hybridoma mini-pools with absorbance values of more than 1.0 were selected for further screening.
The purified chimeric antibodies were 2-fold serial diluted for eleven rounds starting from […] until reaching the final concentration of 0.977 ng/mL. The PD-1 binding activity of purified chimeric antibodies was evaluated by ELISA following the procedure mentioned in Example 2, while the goat anti-human IgG Fcγ-HRP antibody (Jackson Immuno Research) diluted 1:10.000 in PBST was used to detect chimeric antibodies.

[5] = biological target: T1, human PD-1 on PD-1-expressing Jurkat …; assay: cell-based or functional assay; remark: listed apart in the source
[6] = biological target: T1, human PD-1 on PD-1-expressing Jurkat …; assay: cell-based or functional assay; remark: listed apart in the source
[7] = biological target: T2, recombinant human PD-1 His-tag protein …; assay: SPR, Biacore T200, as in Example 8 (antibody on Protein G chip, PD-1 His-tag injected)
Description: as §1

T2 sequence (Q15116 25-167 limits assumed): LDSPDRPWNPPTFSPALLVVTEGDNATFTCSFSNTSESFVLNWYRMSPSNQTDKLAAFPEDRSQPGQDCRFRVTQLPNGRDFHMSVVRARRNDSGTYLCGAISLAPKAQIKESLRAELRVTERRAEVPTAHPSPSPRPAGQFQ
T1 sequence (Q15116 25-288): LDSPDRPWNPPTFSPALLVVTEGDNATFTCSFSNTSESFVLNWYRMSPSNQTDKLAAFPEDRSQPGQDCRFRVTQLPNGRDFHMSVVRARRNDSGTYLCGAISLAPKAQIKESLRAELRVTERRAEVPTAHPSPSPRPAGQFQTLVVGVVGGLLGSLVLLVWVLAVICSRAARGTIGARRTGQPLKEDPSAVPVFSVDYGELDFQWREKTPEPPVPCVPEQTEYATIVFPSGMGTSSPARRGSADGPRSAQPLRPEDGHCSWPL

Row | Binder | IC50 (read off the curve) [1] | Kd [2] | koff [2] | kon [2] | PD-1/PD-L1 blockade bioassay, IC50 [3] | EC50 [4] | IC50 (read off the curve) [5] | PD-1/PD-L1 blockade bioassay, IC50 [6] | Kd [7] | koff [7] | kon [7]
1 | B1 | ~0.3 µg/mL | 0.18 nM | 0.000512 s⁻¹ | 2.84e+06 M⁻¹ s⁻¹ | 0.302 µg/mL | 0.0201 µg/mL | – | – | – | – | –
2 | B2 | – | 0.083 nM | 0.000193 s⁻¹ | 2.3e+06 M⁻¹ s⁻¹ | 0.372 µg/mL | 0.0154 µg/mL | ~0.4 µg/mL | – | – | – | –
3 | B3 | – | – | – | – | – | – | – | 0.462 µg/mL | 0.249 nM | 0.000746 s⁻¹ | 2.99e+06 M⁻¹ s⁻¹
4 | B4 | – | – | – | – | – | – | – | 2.41 µg/mL | 3.28 nM | 0.00944 s⁻¹ | 2.88e+06 M⁻¹ s⁻¹
5 | B5 | – | – | – | – | – | – | – | 0.297 µg/mL | 0.227 nM | 0.000721 s⁻¹ | 3.18e+06 M⁻¹ s⁻¹
6 | B6 | – | – | – | – | – | – | – | 0.312 µg/mL | 0.182 nM | 0.000579 s⁻¹ | 3.18e+06 M⁻¹ s⁻¹
7 | B7 | – | 1.23 nM | 0.000366 s⁻¹ | 298000 M⁻¹ s⁻¹ | 0.957 µg/mL | 0.0353 µg/mL | – | – | – | – | –
